This passage reports reverse-splicing fitness results from the RNAGym collection of RNA variant scans (doi:10.1093/molbev/msab373).

First the molecules themselves.
B1: Azoarcus group I ribozyme (parent)
chain: GUGCCUUGCGCCGGGAAACCACGCAAGGGAUGGUGUCAAAUUCGGCGAAACCUAAGCGCCCGCCCGGGCGUAUGGCAACGCCGAGCCAAGCUUCGGCGCCUGCGCCGAUGAAGGUGUAGAGACUAGACGGCACCCACCUAAGGCAAACGCUAUGGUGAAGGCAUAGUCCAGGGAGUGGCGAAAGUCACACAAACCGG

Variants of B1 are the subject of the data set. As to the kind of experiment: reverse-splicing fitness (ratio to wild type); higher = more active; in vitro selection; Mg2+ level not given. The procedure, abridged: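 An in vitro group I ribozyme library with randomized positions was T7-transcribed and gel-purified. In triplicate, 10 pmol RNA in EPPS pH 7.5 was reacted with 50 pmoles of a 30-nt RNA substrate for 1 h at 37 °C across several added MgCl2 levels (1–48 mM), then stopped with EDTA. Products were reverse transcribed from a substrate-complementary primer, PCR-amplified and sequenced (HiSeq 4000). Fitness is a variant's read proportion after selection over that before, normalised to wild type.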
Turning to C82G A111G A120C A145G C150U U176C, the reverse-splicing fitness was 0.0344.

As to C82G A111G A120C A145G C150U U176G, the reverse-splicing fitness was found to be 0.0117.

In the case of C82G A111C C150G C169U U176C, the reverse-splicing fitness came out at 0.0127.

With C82G A111C C150G C169U U176G, the reverse-splicing fitness turned out to be 0.00599.

As for C82G A111C C150G C169U U176A, the reverse-splicing fitness is 0.00763.

In the case of C82G A111C A145U C169A, the reverse-splicing fitness was 0.00813.

In the case of C82G A111C A145U C169G, the reverse-splicing fitness worked out at 0.0102.

For the variant C82G A111C A145U C169U, the reverse-splicing fitness amounted to 0.0133.

Take C82G A111C A145U C150G C169U U176A: the reverse-splicing fitness was 0.00811.

Regarding C82G A111C A145U C150G C169U U176C, the reverse-splicing fitness amounted to 0.0123.

Take C82G A111C A145U C150G C169U U176G: the reverse-splicing fitness is 0.00704.

In the case of C82G A111G A120C C150U C169G, the reverse-splicing fitness is 0.00909.

Regarding C82G A111G A120C C150U C169A, the reverse-splicing fitness came to 0.0102.

Regarding C82G A111G A120C A145U C150G U176G, the reverse-splicing fitness was 0.00435.

On to C82G A111G A120C A145U C150G U176A, for which the reverse-splicing fitness is 0.00634.

As for C82G A111G A120C A145U C150G U176C, the reverse-splicing fitness stood at 0.0121.

For the variant C82G A111G A120C A145G C150A C169A, the reverse-splicing fitness is 0.0118.

Take C82G A111G A120C A145G C150A C169U: the reverse-splicing fitness turned out to be 0.0118.

For the variant C82G A111G A120C A145G C150A C169G, the reverse-splicing fitness worked out at 0.0104.

As for C82G A111C A145U C150U C169U U176A, the reverse-splicing fitness turned out to be 0.0161.

Turning to C82G A111C A145U C150U C169U U176G, the reverse-splicing fitness came to 0.00778.

As to C82G A111C A145U C150U C169U U176C, the reverse-splicing fitness was 0.0115.

As to C82G A111C C150G U176A, the reverse-splicing fitness amounted to 0.00967.

Turning to C82G A111C C150G U176G, the reverse-splicing fitness stood at 0.00449.

Turning to C82G A111C C150G U176C, the reverse-splicing fitness was 0.0159.

As for C82G A111G A120C A145G C150G C169U U176G, the reverse-splicing fitness came out at 0.00784.

With C82G A111G A120C A145G C150G C169U U176C, the reverse-splicing fitness was found to be 0.0142.

As for C82G A111G A120C A145G C150G C169U U176A, the reverse-splicing fitness was 0.0118.

In the case of C82G A111C A145U C150G C169G U176G, the reverse-splicing fitness came out at 0.00802.

Take C82G A111G A120C A145C C150G C169U U176A: the reverse-splicing fitness stood at 0.00714.

As for C82G A111G A120C A145C C150G C169U U176C, the reverse-splicing fitness was 0.0131.

For C82G A111G A120C A145C C150G C169U U176G, the reverse-splicing fitness is 0.00551.

Take C82G A111G A120C C150G C169G U176G: the reverse-splicing fitness stood at 0.00647.

For C82G A111G A120C C150G C169G U176C, the reverse-splicing fitness was determined as 0.0117.

Take C82G A111G A120C C150G C169G U176A: the reverse-splicing fitness turned out to be 0.00929.

As for C82G A111G A120C C150A C169G U176G, the reverse-splicing fitness stood at 0.00655.

As to C82G A111G A120C C150A C169G U176C, the reverse-splicing fitness was 0.0218.

Turning to C82G A111G A120C C150A C169G U176A, the reverse-splicing fitness is 0.0218.

As for C82G A111G A120C A145U C150G C169A U176G, the reverse-splicing fitness came out at 0.00589.

With C82G A111G A120C A145U C150G C169A U176C, the reverse-splicing fitness amounted to 0.0134.

C82G A111G A120C A145U C150G C169A U176A: the reverse-splicing fitness worked out at 0.0119.

Regarding C82G A111G A120C A145C C169A U176A, the reverse-splicing fitness was found to be 0.0154.

As for C82G A111G A120C A145C C169A U176G, the reverse-splicing fitness was determined as 0.00459.

Consider C82G A111G A120C A145C C169A U176C, for which the reverse-splicing fitness worked out at 0.0106.

Turning to C82G A111G A120C A145C C150U C169U, the reverse-splicing fitness amounted to 0.0103.

Turning to C82G A111G A120C A145C C150U C169A, the reverse-splicing fitness stood at 0.00918.

Turning to C82G A111G A120C A145C C150U C169G, the reverse-splicing fitness is 0.00849.

C82G A111G A120C A145G C169A U176C: the reverse-splicing fitness came out at 0.0188.

As for C82G A111G A120C A145G C169A U176A, the reverse-splicing fitness amounted to 0.0151.

Take C82G A111G A120C A145G C169A U176G: the reverse-splicing fitness came to 0.00503.

For C82G A111C A145U C169A U176A, the reverse-splicing fitness was found to be 0.0149.

As for C82G A111C A145U C169A U176G, the reverse-splicing fitness came to 0.00775.

For C82G A111C A145U C169A U176C, the reverse-splicing fitness amounted to 0.0153.

Regarding C82G A111C A145U C150G C169U, the reverse-splicing fitness was found to be 0.00891.

C82G A111G A120C C150G U176C: the reverse-splicing fitness came out at 0.0121.

As to C82G A111G A120C C150G U176G, the reverse-splicing fitness worked out at 0.00412.

As to C82G A111G A120C C150G U176A, the reverse-splicing fitness turned out to be 0.00594.

C82G A111G A120C A145C C150U C169U U176G: the reverse-splicing fitness is 0.00553.

Take C82G A111G A120C A145C C150U C169U U176A: the reverse-splicing fitness was determined as 0.013.

As for C82G A111G A120C A145C C150U C169U U176C, the reverse-splicing fitness came out at 0.0121.

For C82G A111G A120C A145U C169A U176G, the reverse-splicing fitness is 0.00508.

As for C82G A111G A120C A145U C169A U176A, the reverse-splicing fitness turned out to be 0.0147.

C82G A111G A120C A145U C169A U176C: the reverse-splicing fitness is 0.0149.

Take C82G A111G A120C A145C C150A C169U: the reverse-splicing fitness was 0.00986.

For C82G A111G A120C A145C C150A C169G, the reverse-splicing fitness was 0.00899.

As to C82G A111G A120C A145C C150A C169A, the reverse-splicing fitness is 0.00953.

Consider C82G A111G A120C A145G C150U C169A U176G, for which the reverse-splicing fitness is 0.00689.

On to C82G A111G A120C A145G C150U C169A U176C, for which the reverse-splicing fitness came out at 0.0173.

C82G A111G A120C A145G C150U C169A U176A: the reverse-splicing fitness worked out at 0.0156.

For C82G A111G A120C A145C C150G U176G, the reverse-splicing fitness is 0.0035.

In the case of C82G A111G A120C A145C C150G U176C, the reverse-splicing fitness came out at 0.00886.

C82G A111G A120C A145C C150G U176A: the reverse-splicing fitness was 0.00574.

As for C82G A111G A120C A145G C150G C169U, the reverse-splicing fitness amounted to 0.00987.

Turning to C82G A111G A120C A145G C150G C169G, the reverse-splicing fitness stood at 0.00764.

For the variant C82G A111G A120C A145G C150G C169A, the reverse-splicing fitness is 0.00978.

On to C82G A111G A120C A145U C150U C169U U176G, for which the reverse-splicing fitness turned out to be 0.00591.

C82G A111G A120C A145U C150U C169U U176C: the reverse-splicing fitness came out at 0.0143.

Take C82G A111G A120C A145U C150U C169U U176A: the reverse-splicing fitness came out at 0.0143.

C82G A111C C150U C169U U176A: the reverse-splicing fitness came to 0.015.

Consider C82G A111C C150U C169U U176C, for which the reverse-splicing fitness amounted to 0.0142.

C82G A111C C150U C169U U176G: the reverse-splicing fitness was determined as 0.00854.

Consider C82G A111G A120C A145C C150A C169A U176G, for which the reverse-splicing fitness is 0.00653.

With C82G A111G A120C A145C C150A C169A U176A, the reverse-splicing fitness was determined as 0.0183.

C82G A111G A120C A145C C150A C169A U176C: the reverse-splicing fitness turned out to be 0.00849.
